Assay results: article PMC3771910, “The Crystal Structure and RNA-Binding of an Orthomyxovirus Nucleoprotein” (PLoS Pathogens, 2013)

Key:
[1] = molecular target: ISAV-NP ΔC16 (aa 1–600) (infectious salmon anemia virus (ISAV)); assay: SEC; gel filtration chromatography (Superdex 200) of purified recombinant NP; size estimated against three protein standards
[2] = molecular target: ISAV-NP ΔC16 (aa 1–600) (infectious salmon anemia virus (ISAV)); assay: negative-staining electron microscopy; NP mixed with 24-nt RNA at 2:1 protein:RNA molar ratio in 100 mM NaCl, 25 mM HEPES pH 7.5, 25°C 30 min, purified by gel filtration before use
[3] = molecular target: the molecule itself; assay: SEC; gel filtration chromatography (Superdex 200) of purified recombinant NP; size estimated against three protein standards

ISAV-NP ΔC16 (aa 1–600) (domain or fragment)
stoichiometry N [1]: 2 | stoichiometry N [2]: 2

B1: infectious salmon anemia virus nucleoprotein, full-length (aa 1–616) (natural protein)
chain: MADKGMTYSFDVRDNTLVVRRSTATKSGIKISYREDRGTSLLQKAFAGTEDEFWVELDQDVYVDKKIREFLVEEKMKDMSTRVSGAVAAAIERSVEFDNFSKEAAANIEMAGVDDEEAGGSGLVDNRRKNKGVSNMAYNLSLFIGMVFPALTTFFSAILSEGEMSIWQNGQAIMRILALADEDGKRQTRTGGQRVDMADVTKLNVVTANGKVKQVEVNLNDLKAAFRQSRPKRSDYRKGQGSKATESSISNQCMALIMKSVLSADQLFAPGVKMMRTNGFNASYTTLAEGANIPSKYLRHMRNCGGVALDLMGMKRIKNSPEGAKSKIFSIIQKKVRGRCRTEEQRLLTSALKISDGENKFQRIMDTLCTSFLIDPPRTTKCFIPPISSLMMYIQEGNSVLAMDFMKNGEDACKICREAKLKVGVNSTFTMSVARTCVAVSMVATAFCSADIIENAVPGSERYRSNIKANTTKPKKDSTYTIQGLRLSNVRYEARPETSQSNTDRSWQVNVTDSFGGLAVFNQGAIREMLGDGTSETTSVNVRALVKRILKSASERSARAVKTFMVGEQGKSAIVISGVGLFSIDFEGVEEAERITDMTPEIEFDEDDEEEEDIDI
notes: Nucleoprotein (NP) of infectious salmon anemia virus (ISAV), aa 1-616; Dimer in solution; also called ISAV-NP; wt NP; source: E. coli Rosetta 2 (DE3), purified (HisTrap HP, HiTrap Heparin HP, Superdex 200)
stoichiometry N [3]: 2
